{"source": "patent US20220062148", "key": {"[1]": {"target": "T1, Peptide sequence QGKKAPXX", "T1 chain": "QGKKAP"}, "[2]": {"target": "T2, Peptide sequence WGNRSPLE", "T2 chain": "WGNRSPLE"}, "[3]": {"target": "T3, Peptide sequence QAVRPNGM", "T3 chain": "QAVRPNGM"}, "[4]": {"target": "T4, Peptide sequence XIARQPWN", "T4 chain": "ARQPWN"}, "[5]": {"target": "T5, Peptide sequence FDNRVGKW", "T5 chain": "FDNRVGKW"}}}
{"protein": "Atlantic cod trypsin I (protein) IVGGYECTKHSQAHQVSLNSGYHFCGGSLVSKDWVVSAAHCYKSVLRVRLGEHHIRVNEGTEQYISSSSVIRHPNYSSYNINNDIMLIKLTKPATLNQYVHAVALPTECAADATMCTVSGWGNTMSSVADGDKLQCLSLPILSHADCANSYPGMITQSMFCAGYLEGGKDSCQGDSGGPVVCNGVLQGVVSWGYGCAERDHPGVYAKVCVLSGWVRDTMANY", "values": [{"measurement": "Ion Precursor Intensities, 5′ incubation (multiplex substrate profiling, cleavage)", "setting": "[1]", "result": 0}, {"measurement": "Ion Precursor Intensities, 15′ incubation (multiplex substrate profiling, cleavage)", "setting": "[1]", "result": 0}, {"measurement": "Ion Precursor Intensities, 60′ incubation (multiplex substrate profiling, cleavage)", "setting": "[1]", "result": 0}, {"measurement": "Ion Precursor Intensities, 5′ incubation (multiplex substrate profiling, cleavage)", "setting": "[2]", "result": 0}, {"measurement": "Ion Precursor Intensities, 15′ incubation (multiplex substrate profiling, cleavage)", "setting": "[2]", "result": 0}, {"measurement": "Ion Precursor Intensities, 60′ incubation (multiplex substrate profiling, cleavage)", "setting": "[2]", "result": 0}, {"measurement": "Ion Precursor Intensities, 5′ incubation (multiplex substrate profiling, cleavage)", "setting": "[3]", "result": 0}, {"measurement": "Ion Precursor Intensities, 15′ incubation (multiplex substrate profiling, cleavage)", "setting": "[3]", "result": 0}, {"measurement": "Ion Precursor Intensities, 60′ incubation (multiplex substrate profiling, cleavage)", "setting": "[3]", "result": 0}, {"measurement": "Ion Precursor Intensities, 5′ incubation (multiplex substrate profiling, cleavage)", "setting": "[4]", "result": 0}, {"measurement": "Ion Precursor Intensities, 15′ incubation (multiplex substrate profiling, cleavage)", "setting": "[4]", "result": 0}, {"measurement": "Ion Precursor Intensities, 60′ incubation (multiplex substrate profiling, cleavage)", "setting": "[4]", "result": 189000}, {"measurement": "Ion Precursor Intensities, 5′ incubation (multiplex substrate profiling, cleavage)", "setting": "[5]", "result": 0}, {"measurement": "Ion Precursor Intensities, 15′ incubation (multiplex substrate profiling, cleavage)", "setting": "[5]", "result": 0}, {"measurement": "Ion Precursor Intensities, 60′ incubation (multiplex substrate profiling, cleavage)", "setting": "[5]", "result": 165000}]}
